This assay has as its target receptors that recognize the sequence GRGDSPG. Put plainly: cell-based or functional assay.

Where no end group is shown, it is not given here.

Take GC(PEG acrylate)GYGRGDSPG […]: the adhesion and spreading of human foreskin fibroblasts on conjugate addition gels, 6 hours post-seeding is 50%.

The values above are taken from patent EP1292709B1.
